Here are results for two substances from paper PMC7940618, “Specific inhibition of the Survivin–CRM1 interaction by peptide-modified molecular tweezers” (Nature Communications, 2021).

The target of assay [1] is T1, GST-Survivin120–CRM1 interaction (Homo sapiens, UniProt O15392).
T1 construct: the only published NMR structure originated from a truncated Survivin (aa 1-120) with improved solubility; made in house; host or cells: Escherichia coli soluBL21
Nature of the assay: Pull-down with GST-Survivin120 wildtype bait, CRM1 and RanQ69L. In kind it is binding. As to the method:
(§1) Next, we investigated whether tweezer inhibition of the export complex assembly is compromised upon lysine mutations near the NES. Therefore, pull-down experiments were performed with recombinant GST-tagged Survivin120 wildtype and K90/103T as bait proteins, tweezers, recombinant CRM1 and RanQ69L (Fig. 7g). Controls lacking the Survivin baits were included, as well as isolated peptides without tweezer (Fig. 7h). […] However, for the double lysine mutant GST-Survivin120-K90/103T even the tweezer conjugates lost most of their inhibitory power toward the essential Survivin–CRM1 interaction.
(§2) All pull-down assays were performed at room temperature in pull-down buffer (PBS, pH 7.4, 1 mM DTT, 0.02 Triton X-100). GST fusion proteins were immobilized on 50 μL GSH-coated Sepharose 4B beads from GE Healthcare. The beads were prior equilibrated and blocked with 500 μL pull-down blocking buffer (PBS, pH 7.4, 1 (w/v) BSA, 1 mM DTT, 0.02 (v/v) Triton X-100) for 1 h to prevent unspecific binding.
(§3) For analysis of the effective inhibitory tweezer concentration, 200 μg 293T lysate with overexpressed Survivin142-HA was preincubated without ligand or with different concentrations (10 nM to 200 μM) of unmodified tweezer TW, TW-ELTL, TW-ELTLGEFL, or TW-LFEEGLLT for 1 h and then mixed with 35 μg GST-CRM1, 55 μg RanQ69L, and 2 mM dGTP. GSH-beads were incubated with this protein mixture for 2 h under rotation. For analysis of tweezer specificity, 40 μg GST-Survivin120 or GST-Survivin120-K90/103T point mutant was pre-bound to equilibrated GSH-beads in 500 μL pull-down buffer, containing additionally either no ligand or 50 μM unmodified tweezer TW, TW-ELTL, TW-ELTLGEFL, or peptides ELTL and ELTLGEFL, for 1 h under rotation. After washing and blocking, GSH-beads were incubated with a protein mixture consisting of 2 mM dGTP, 50 μg CRM1, and 50 μg RanQ69L for 2 h under rotation.
(§4) Samples of input and beads taken during pull-down experiments were ran on 12.5 SDS gels and transferred onto 0.2 µM PVDF membranes (Amersham Hybond P 0.2) using a PerfectBlue™ tank electro blotter (Peqlab) at 350 mA for 150 min. Membranes were blocked for 1 h using 5% milk powder in TBS buffer containing 0.1% Tween-20. Next, membranes were incubated in primary antibodies against HA (anti-HA, mouse monoclonal, BioLegend, Covance MMS-101R, 1:1,000), GST (anti-GST, mouse monoclonal, Santa Cruz Biotechnology Inc., sc-57753, 1:1000) or CRM1 (anti-CRM1, rabbit polyclonal, Novus Biologicals Ltd., NB100-79802, 1:10,000) overnight at 4 °C. Secondary horseradish peroxidase (HRP)-conjugated antibody (anti-mouse IgG-HRP, sheep, GE Healthcare, NXA931 or anti-rabbit IgG-HRP, donkey, GE Healthcare, NA934) was then added (1:10,000) for 1 h at room temperature. Chemiluminescence was detected and imaged using the Pierce ECL Plus Western Blotting Substrate kit (Thermo Fisher Scientific) and Chemidoc system (Bio-Rad) or film processor Cawomat 2000 IR (CAWO). Western blots were analyzed by densitometric analysis with ImageJ version 1.52p (U.S. National Institutes of Health), measuring the mean gray intensity of protein bands. Uncropped and unprocessed scans of western blots are deposited in the Source Data file.

The target in assay [2] is T2, GST-Survivin120-K90/103T–CRM1 interaction (Homo sapiens, UniProt O15392, K103T/K90T).
T2 construct: the only published NMR structure originated from a truncated Survivin (aa 1-120) with improved solubility; made in house; host or cells: Escherichia coli soluBL21
T2 sequence (O15392 1-120 K90T/K103T): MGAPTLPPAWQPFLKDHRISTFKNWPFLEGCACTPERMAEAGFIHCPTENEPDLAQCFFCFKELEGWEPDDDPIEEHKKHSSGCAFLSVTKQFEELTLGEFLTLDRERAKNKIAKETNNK
The assay is described as follows: Pull-down with GST-Survivin120-K90/103T bait, CRM1 and RanQ69L. In kind it is binding. The method, then:
as §1, §2, §3, §4

The target of assay [3] is TW-ELTLGEFL (asymmetrical molecular tweezer linked to the elongated peptide ELTLGEFL) (human). Nature of the assay: ITC; tweezer conjugate (100 µM) in the cell, Survivin120 (1.2 mM WT or 2.5 mM K90/103T) in the syringe; PBS pH 7.4, 25 °C; one set of sites model. For orientation: Isothermal titration calorimetry measures the heat released or taken up as one component is titrated into another.

For assay [4], the target named is TW-ELTL (asymmetrical molecular tweezer linked to the short peptide ELTL) (human). The assay is described as above.
Assay [5] addresses TW-ELTL-FAM (human). Nature of the assay: fluorescence polarisation; fluorescence anisotropy; 200 nM FAM-labeled tweezer titrated with Survivin120 (to 180 µM) or K90/103T (to 350 µM); PBS pH 7.4, 25 °C; single-site model. Background: Polarisation of emitted light reports the rotation of a fluorescent probe.
Assay [6] concerns the target TW-ELTLGEFL-FAM (human). Described as above.
[7] abbreviates: CRM1 band, samples 22-28 (K90/103T).

T1 sequence (O15392 1-120): as the sequence (O15392 1-120 K90T/K103T) above, with T90K, T103K counted along it

“ELTLGEFL peptide: isolated peptide ELTLGEFL without tweezer, pull-down control”: the “CRM1: Peak area determined with ImageJ” value in assay [1] (CRM1 band, samples 15-21 (WT)) was 27360.9; in assay [2] (setting [7]), 38827.8. For the same substance, the “CRM1 intensity_normalised on GST-Surv intensity (samples 1-14)” value in assay [1] (CRM1 band, samples 15-21 (WT)) is reported as 0.3991; in assay [2] (setting [7]), 0.485. Further, the “CRM1: Control w/o GST-Survivin subtracted (sample 16 or 23)” value was 22503.2 in assay [1] (CRM1 band, samples 15-21 (WT), sample 16 subtracted) and 34118.6 in assay [2] (CRM1 band, samples 22-28 (K90/103T), sample 23 subtracted). Also, the “GST-Surv: Peak area determined with ImageJ” value in assay [1] (GST-Surv bait band, samples 1-7 (WT according to the summary in r39-r41)) is listed as 57214.6; in assay [2] (GST-Surv bait band, samples 8-14 (K90/103T according to the summary in r39-r41)), 72953.9. Moreover, the “GST-Surv: Control w/o GST-Survivin subtracted (sample 2 or 9)” value was 56379.3 in assay [1] (GST-Surv bait band, samples 1-7 (WT), sample 2 subtracted) and 70354.7 in assay [2] (GST-Surv bait band, samples 8-14 (K90/103T), sample 9 subtracted). The “Normalised CRM1 intensity, summary of replicates I and II” value is recorded as 112.936% in assay [1] (WT, w/o tweezer = 100, replicates I and II); 76.5436% in assay [2] (K90/103T, w/o tweezer = 100, replicates I and II). The “CRM1 intensity_normalised on GST-Surv intensity (samples 1-14) and CRM1 intensity w/o incubation (sample 15 or 22)” value was 1.129 in assay [1] (samples 15-21 (WT), fraction of sample 15 (w/o Tweezer)); 112.936% in assay [1] (samples 15-21 (WT), w/o Tweezer = 100); 0.7654 in assay [2] (samples 22-28 (K90/103T), fraction of sample 22 (w/o tweezer)); 76.5436% in assay [2] (samples 22-28 (K90/103T), w/o tweezer = 100).

For the substance “Survivin120 K90/103T (from UniProt O15392 1-120) (domain or fragment)”, the Kd came out at 36 µM in assay [3], 50 µM in assay [4], 240 µM in assay [5] and 92 µM in assay [6]. Also, the stoichiometry N (ligand/protein) in assay [3] and in assay [4] was 1 in each case.

As usually defined, the Kd is the equilibrium constant for the complex coming apart.
